We go through twelve substances from publication PMC9687537.

The test concerns the target DYNC2H1 [human (endogenous in RPE1)]. Description: GFP-trap purification, TMT-labelling and mass spectrometry. To be noted: RPE1 WDR34 KO cell lines expressing GFP proteins, serum-starved for 24 h; read off a plot.
Take “GFP–WDR34-WT mutant C148F [human] / DYNC2H1 [human (endogenous in RPE1)] chain 1 C148F”: the ratio to parent is 0.55.

As for “GFP–WDR34-WT mutant R182W [human] / DYNC2H1 [human (endogenous in RPE1)] chain 1 R182W”, the ratio to parent was 2.

Turning to “GFP–WDR34-WT mutant A22V [human] / DYNC2H1 [human (endogenous in RPE1)] chain 1 A22V”, the ratio to parent is 0.93.

As to “GFP–WDR34-WT mutant G393S [human] / DYNC2H1 [human (endogenous in RPE1)] chain 1 G393S”, the ratio to parent worked out at 0.3.

As for “GFP–WDR34-WT mutant R447Q [human] / DYNC2H1 [human (endogenous in RPE1)] chain 1 R447Q”, the ratio to parent worked out at 0.62.

“GFP–WDR34-WT mutant R447W [human] / DYNC2H1 [human (endogenous in RPE1)] chain 1 R447W”: the ratio to parent amounted to 0.93.

For the substance “GFP–WDR34-WT mutant P390L [human] / DYNC2H1 [human (endogenous in RPE1)] chain 1 P390L”, the ratio to parent was 1.6.

Turning to “GFP–WDR34-WT mutant A341V [human] / DYNC2H1 [human (endogenous in RPE1)] chain 1 A341V”, the ratio to parent amounted to 2.

In the case of “GFP–WDR34-WT mutant R206C [human] / DYNC2H1 [human (endogenous in RPE1)] chain 1 R206C”, the ratio to parent is 2.7.

As for “GFP–WDR34-WT mutant K436R [human] / DYNC2H1 [human (endogenous in RPE1)] chain 1 K436R”, the ratio to parent was determined as 2.

For the substance “GFP–WDR34-WT mutant S410I [human] / DYNC2H1 [human (endogenous in RPE1)] chain 1 S410I”, the ratio to parent worked out at 0.45.

As to “GFP–WDR34-WT mutant T354M [human] / DYNC2H1 [human (endogenous in RPE1)] chain 1 T354M”, the ratio to parent stood at 0.22.
